Our source for the IC50 values is patent publication US20170174775A1 (published 2017).

To fix the notation:
B1: DOM4-130-54 (other)
VL: DIQMTQSPSSLSASVGDRVTITCRASQDIYLNLDWYQQKPGKAPKLLINFGSELQSGVPSRFSGSGYGTDFTLTISSLQPEDFATYYCQPSFYFPYTFGQGTKVEIKR
notes: dAb (VK single variable domain) against IL-1R1; parent
B2: DOM4-130-202 (other)
chain: DIQMTQSPSSLSASVGDRVTISCRASQDIYLNLDWYQQKPGKAPKLLISFGSELQSGVPSRFSGSGYGTDFTLTISSLQPEDSATYYCQPSFYYPYTFGQGTKVEIKR
B3: DOM4-130-201 (other)
chain: DIQMTQSPSSLSASVGDRVTITCRASQDIYLNLDWYQQKPGKAPKLLIKFGSELQSGVPSRFSGSGYGTDFTLTISNLQPEDFATYYCQPSFYFPYTFGQGTKVEIKW

The target of the test is T1, IL-RI (Receptor Binding Assay).
T1 construct: The construct used in the RBA is not described; it may be the same as the IL-1R1 fusion protein; also called IL-1RI; IL-1R1
T1 sequence (P14778 whole entry, the tested form may be a part): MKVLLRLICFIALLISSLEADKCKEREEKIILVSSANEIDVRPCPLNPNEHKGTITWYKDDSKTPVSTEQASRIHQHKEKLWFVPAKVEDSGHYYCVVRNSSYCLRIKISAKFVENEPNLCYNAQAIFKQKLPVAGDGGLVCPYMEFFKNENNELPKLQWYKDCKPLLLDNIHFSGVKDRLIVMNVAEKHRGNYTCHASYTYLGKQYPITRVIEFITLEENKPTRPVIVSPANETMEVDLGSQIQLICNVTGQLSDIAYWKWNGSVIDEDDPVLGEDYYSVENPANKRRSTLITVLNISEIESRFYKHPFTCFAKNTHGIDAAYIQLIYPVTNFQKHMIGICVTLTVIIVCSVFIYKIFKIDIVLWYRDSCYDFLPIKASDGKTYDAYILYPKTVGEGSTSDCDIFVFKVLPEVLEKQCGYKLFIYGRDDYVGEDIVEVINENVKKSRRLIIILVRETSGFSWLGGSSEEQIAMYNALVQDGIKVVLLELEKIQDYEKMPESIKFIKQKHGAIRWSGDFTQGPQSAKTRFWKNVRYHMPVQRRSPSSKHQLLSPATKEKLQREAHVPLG
The test can be described thus: Receptor Binding Assay; inhibition of IL-1 binding to IL-RI.
Molecule B1 gave an IC50 of 0.28 nM.
In turn, B2 showed an IC50 of 0.254 nM.
The value for B3 was 0.257 nM.

In general, IC50 refers to the point on the concentration scale where inhibition reaches its midpoint. Low values mean higher potency, high ones lower potency.
